Consider one molecule from PMC8955265, “Systematic Discovery of FBXW7-Binding Phosphodegrons Highlights Mitogen-Activated Protein Kinases as Important Regulators of Intracellular Protein Levels” (International Journal of Molecular Sciences, 2022).

The assay deals with T1, Skp1-FBXW7 complex (human, UniProt P63208 1-149; Q969H0 263-707).
T1 construct: Skp1, truncated, residues 1-149; cDNA obtained from a HEK293T cell cDNA pool; human FBXW7, residues 263-707 (holds the WD40 domain); it was removed with TEV protease after Ni-NTA; also called purified FBXW7; FBXW7-Skp1 complex; source: E. coli Rosetta (DE3), co-expressed from a bicistronic plasmid (pMG950), purified (Ni-NTA, anion exchange, SEC); not shown: His6, N-terminal, cleaved
In words: fluorescence polarisation; direct titration: 50 nM CF-labeled CCNE peptide, increasing Skp1-FBXW7 complex; 20 mM Tris pH 8.0, 100 mM NaCl, 0.05% Brij35P, 2 mM TCEP; 384-well plates, 20 uL. To be noted: both partners purified.

Where no end group is shown, it is not given here. [ ]: non-standard residue; d: D form. pT = C[C@@H](OP(=O)(O)O)[C@H](N)C(=O)O; pS = N[C@@H](COP(=O)(O)O)C(=O)O; CF = carboxyfluorescein

T1 sequence (P63208 1-149, chain 1 of 2): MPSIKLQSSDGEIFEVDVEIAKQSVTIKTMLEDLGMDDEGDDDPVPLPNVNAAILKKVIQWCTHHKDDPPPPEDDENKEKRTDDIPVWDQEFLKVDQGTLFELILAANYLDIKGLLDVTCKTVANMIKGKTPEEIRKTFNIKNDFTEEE
T1 sequence (Q969H0 263-707, chain 2 of 2): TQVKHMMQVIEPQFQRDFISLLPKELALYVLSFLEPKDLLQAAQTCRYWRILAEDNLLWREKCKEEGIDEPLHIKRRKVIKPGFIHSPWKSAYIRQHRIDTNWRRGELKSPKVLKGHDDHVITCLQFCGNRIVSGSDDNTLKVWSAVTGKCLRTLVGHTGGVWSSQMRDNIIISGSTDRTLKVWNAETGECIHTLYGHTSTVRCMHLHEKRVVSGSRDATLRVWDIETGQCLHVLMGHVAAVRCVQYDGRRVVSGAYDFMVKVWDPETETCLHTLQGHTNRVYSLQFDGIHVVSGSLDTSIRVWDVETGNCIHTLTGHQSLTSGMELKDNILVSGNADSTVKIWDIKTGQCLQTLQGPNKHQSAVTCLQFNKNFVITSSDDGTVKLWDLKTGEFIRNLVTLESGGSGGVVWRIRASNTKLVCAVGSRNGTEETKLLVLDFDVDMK

B1: carboxyfluorescein (CF) labeled CCNE peptide (CF-PSGLLpTPPQpSGKKQ) (peptide)
peptide: {CF}-PSGLL[pT]PPQ[pS]GKKQ
notes: bisphosphorylated degron motif of cyclin E1 (CCNE1); also called fluorescently labeled CCNE peptide; CCNE1 motif; source: synthetic peptide (GenScript)
Regarding B1, the binding result was “binds”.
